Measurements taken from the DeepSol protein solubility set.

Assay: soluble on expression in E. coli; label from the status in PepcDB or PDB records

Row | Sequence | soluble on expression in E. coli
1 | MGSDKIHHHHHHMRAPKISEGKINCKEDDNLKLTVLVDNNTILSNNPHFQDRYFLSEPGLSIFIEADGKKVLFDTGHTGIFLQNSEKMNLDLSDLDYLVLSHGHIDHTGGLKSLIDFYQNQGKTNLKDKPTLIAHPECFLSKIDSPWGEIGCGIPEAEITCHFQLQLSREPLWLTENLVFLGEIERSNDFENLTPLGKVHKNTEGQDDYILDDSALVYKGSKGLIIITGCSHAGICNITKYAQKVCRDERVIDIIGGLHLINPGPIQMEKTKEFLKNVAPQTIRACHCTSLRPKIALAESLNMEEVGTGLQLEYY | not soluble
2 | MGSDKIHHHHHHMRCSPCRMQQAHTPPHSAKSIKHDVKRRIILDAARRMFAHDGAGSVSMRNLAREVGCSAAVLYRYFGSRESILWELRCEGIVLLNDALMGAADAADPLLRLQQLGRAYVSFGIDNLEYYELMFRTPFYEFDAGSLPDGLPDDALVLLHSTAAECLELGYFAGSDVTTVVSSMWSLVHGLVSLILNGRAPLMMGALDTHAMIDRVPDFIAGLARAARGGI | not soluble
3 | MGSDKIHHHHHHMRFGWLEQPFTTLEQLDSLFEIHSPRKFTFADSFYAHENGRHFIFFEEVDDQHPVGFLSVLEVFKDGTYTPPETILKLDYHLSYPCVFKIDSTWYMIPESSANKTIELWKCTDFPMKWEKHSNLMENIEAVDSTPFYHEGLWYLFTSTRRDCKKFGDRLDLFFTEDILNPNWQEHPMNPACRGSQQFRMAGKPFIYKGQLVRPSQDSLKRYGGNIELKAITQLSPAAYEEKLLEVVLPDWNQADDGCHTINVEDNFVVLDAIRLTPKNN | not soluble
4 | MGSDKIHHHHHHMRFMLYEFLKNNYKEAEPIFFSDIVIEGITKSAVNQQLKKLCDEGKLQKYENGIYYLPKKSRLKTNVGVNADMVARYKYVSRGGKVDGFYSGNTFANQLGISTQVPNKVEIVSNNMAAKIREIPIGKRTFIVRRPVVPVNEENVYVLQLLDLLKNLDMYLDESYDVAHDKVSQFVQIHGITKNDVDSYIREFPIAIFRYYYELRLDDVFA | not soluble
5 | MGSDKIHHHHHHMRIFDAHCDALLKLWEDPAREYTDDPAIEANAVRLMEGGVRAQCFAIFVGPNIPFDQKFQVALQQAELFHEKILKKHPQFSFIERWDDLLTLDADQIGAILTLEGADPFGDDPTKLKTLYRLGVRSLGLTWNQANLCADGVGEPRGGGLTEWGKAVVSLNNEHHVLTDVSHLSERGFWDVIEYAQFPVATHSNAKAICKHRRNLTDAQLKALIEAGGFIGIVFHPHFLTGTDDASIDDVMKHIEHICSLGGQKHVGFGSDFDGIPCFVDGLEHAGRFQWFMDELLKRYDEELVRGFAWDNFLKATPISYV | not soluble
6 | MGSDKIHHHHHHMRIFFLDQSGKPGGAELCLIDIAKPYSHSALVGLFADGPFKDLLEQNHIPVEILATQTIQVSKESSLAQGLKSLGQLAPLITKVIKKAREYDLIYANTQKALVVGALASFFSRRPLVYHLHDILSTEHFSQTNLRIAINLANRCASLVIANSQASKTAFIQAGGRSDIVEVVYNGFDLKIYQTDEPGINQLQQKLGLQGKFVVGHFSRLAPWKGQHILIDALAKCPPEVTVILVGDALFGEQDYAQKLHKQVTDLGLENRVKFLGFRSDIPQLMAACDLVAHTSTSPEPFGRVIVEAMLCGKPVVAAKAGGVMELVEHGLNGFLVTPGEPQELAQVIITCLQETEITATIANNARTTASRRFDVATINQQIAQLLSHRF | not soluble
7 | MGSDKIHHHHHHMRITEFYVSNFRSLSEVNLKDLGGFNIVVGYNGYGKTNLLSSIFLFVKNLSAGIEKRSIEDRNQEFILLWQGYDVSKPIMIGGKVEFSPEESNKIVGKNQKITLEIINKMRYNNKFVEWNLDTLYINGSPPGEDDLKVAKKLAEYASQAIEYVPIFDQTYFDETLKRMTEMNKSPINLRKYWYDFVNLVAATIPEVKGMEFWDGRRLVLNVYNLPIYIDLAASGFQRVILMLFIIWLSGNKILLIEEPEVNMHPTLQAKIMKLIKNWTDNNILQSFLTTHSPYIVEMAADSYVVMRRVNGNSTAITVKPTPDLRGTISLLNASLSNILFSRIIILTSELAEPSVIVNWLKRLNINVEDNGISIYKVSSDLELQHWLKLKNMLNLDVIFLGLCDKLDMSLKDYCVPLSREVENFYSKQALLEVLRRLGIYPDEKEIRDLGKEENLRWIINVLRKRGIEYEKLRMSIGELITDVDSIEIPKEIEILANKIKSLQATL | not soluble
8 | MGSDKIHHHHHHMRIYDPFRKKWIEEEIETPFPSKGLVATFPFVDLHVHVRLNGGEDYSSLEEASLVGGFFKVVVQPNTKPLIDSKEVLERHLDLSKNRAVEFLFAVSPFGSIEAEGERVVGFSTDGIEYDYPTLVETMKKKKKALWFDHSQMYEVDGIFYEGAPLPFQKRPRSNEAIAIARTVLTGLEYGFERFHIQHVTTKYSVEVISFLKNLAKVSCEVTPHHLFFCYEDIKNTNFKINPPLGSPEDRRALIEAVKKDVIDVLATDHAPHHEKPDDFLTAPYGSTSIEIAFPAYYTALGDLELVVKKLTKKPLEVLGVEARLTEDTLVFIDPEAEFIVDAKKFKSKGKNSMFDGVRLKGKVVALKLKGRWVMIDGEVIADQKEND | not soluble
9 | MGSDKIHHHHHHMRKDEYRATLLEPNVWHIADYRGDSMYLVVGEEKALLVDTGMGEGDLKGFVRSITEKPVEVVLTHAHWDHIMQANQFEKVYLNHRDFQIIELFKINVNYENFLNVKEGDRFDLGGRTLEVIEVPGHTPGSIVLLDRENRLLFSGDSVGAGHTWMHLPGCLPLREYLKSLKKLKETDSFEKIYHGHLTGTQLKPFGPDYLDDLIKAVEGVIDGSLRGEP | not soluble
10 | MGSDKIHHHHHHMRKILLPYPAGCATGTFVRRVKRFSVEMTRDGESVWVHSNNSGSMLGLLRPGATMLASPAANPDRKLAWTHEAMRCHGDGPQGFWVGVNTSVPNRMVEAAFHAGRLPWAQGYDTFRRERKRGDSRLDARLDGPGLPTLWVECKNVTMVEDDVACFPDAVTERGSKHLREMMDIVSRGERAAMFYLVQRPDGLCFGPADVIDPQYAALFWEAVDAGVEMYPHRGIVSPVGIDLSGVLPLTRCR | not soluble
11 | MGSDKIHHHHHHMRKPGDFLESGMTESVNEKADVMKVPVPNLALGMYVAAIDHQGRVNITNPGQIKDRQAIDKLVRNGIEYVWVDVERSAPECGLRPKQEPEKIIRLTRDQSQEKAKRLMSEAKDLVKKVLSETFEGKAVKVEPFEALADKMLESVMLDADAFKCISALRSKDAYLLEHSINVAFLLVTFGRYLKLKRSVLKQLAVGGILHDIGKVRVNNRILHKPGRLTPEEFEHMKLHQVYAQEILAETEDLSQISRDVCLMHHEKLDGKGYPNGLKGEEISLHGRMSCIVDIFDALTATRCYKEAMSPAAAFKILLSLTPFHLDEKLVYEFIRCVGIYPVGSLVQLSDGRIGIVWEAKDRDALHPVLKTFYSVKHKHYTEVTMVDLLKSDLFIERGVSPSSLDVDPTPFY | not soluble
12 | MGSDKIHHHHHHMRLDLFFDRLLSTEGDKLATVAKNTILEPSVAYFDFTASGLAYRTIEERIASILPRYANTHSEVTNHALFMTELYDEARANLKRHMDLDEEFALFPCGNGSTGAIKKFQELMGLYLPPRTQKRLSLTPDPALFPVVFVGPYEHHSNEVSYRESPCEVVRIPLDSRGLVDMGVLRAKLGEYQGREIITSFSLASNVTGIIIPYEEISALIRKAGGIVTFDMATASSYMNIPSKFFDAAFFSPHKLLGGVGSCGLLAMRKSLIDSTLPPTFAGGGTVTYVSRIDQYYREDPEYREDAGTPGVLQLLRASLAYQLRNEVGLEFIAKRKKELCAPLVEALRKMERVKIYGDIESCNRLGIFAINIEGISPYEVCQRLSREYLIETRAGCSCAGPYGHDLLGLKDDGLFASRPGWVRISVHYSHSLEQIERLLGALEEIARD | not soluble
13 | MGSDKIHHHHHHMRLFKSLKNPKKTDAKLPKKSSGLNNRAAIGIDIDQHSIKMVQLSGRSLNQIQLEKYVIAKLPKNIIQGNKVQNYDQLVTYLQQAYAKLGTSCKNIVASVPQNLATIEQLTYTAKDAELDLQGFVESSISEASSISLEEANYDYQVLSQSAVGEAVLSVASRKDEIEPLIDAFNAAGMKLSALDVDIFGQYNAYALWINHFAPELADEKVAIFGVYAAQTYALVIQDGKILYKQETSVSEEQLNQLIQRTYQVTAEKAEEIINSPQKPSDYQESVANYFNQQITQEIQRVLQFYYTTQTADDMTDIKHILLTGEAVRQKGIAQTVASQTNADVQCVHPARYFANDLKTDEQQFELDAPTLTKAFGLAVRGL | not soluble
14 | MGSDKIHHHHHHMRMDHQLAERWIAPYSHVLDLGCGNGELLAHLQQNRGVTGYGLEIDEDKINEAIANGLSIVEQDLNDGLARFADNSFDTVVMARALQAVKSPDVLLLDMLRVAREAVITFPNFAHWQNRIHLGLKGIMPVSEALPYEWYNTPNIHLCTFKDFEKLCAQHDIHIINRFAVSDSEKGHSSLMTALIRRAPNLLADVAIYRVSKQKPE | not soluble
15 | MGSDKIHHHHHHMRNILIALCLSLTALNSHAADQIERMAADKMQSYKESKINWKDDPILPKGAKSALILGDPSKPGVFIAWLKFPANYPIPAHTHPFTEVITVLKGKLGNGMGEVLDKKKGETLNVGESFVLPAGHAHYVWTGNEETIIELIATGPWDITYSNPKDDPRTK | not soluble
16 | MGSDKIHHHHHHMRNTAVAEQPASVPAMSRLTRQRLHDTVVEYLRDYIVKGVLAPGVKLNERELCETLGISRTPLREAIKVLAAEGLIEISANRGAAVTKLAESEIDEMFELMSGLEAFAGELACERITPHEIAEIKALHYAMVACREREDLSGYYGYNQQIHDRINGAARNCALRQTYLSINRRLQAMRFKSNFHKSKRDHAVHDHEEMIKALESRDGKRLSAILRQHLLDKRDVVLVTLATARETPATGGR | not soluble
17 | MGSDKIHHHHHHMRQLLTYDLMESMRVTNQWMGASARALCSYPQLGLAANPFIQLTAAWGEVAERSFARMAAKPDWGISSIPGADGRDHVISIEPVMERAFGDLIRFDVQGREPTGRKILLVAPMSGHYATLLRKTVLSLLPDADVYITDWHNARDIPVSAGKFDIEDYTHYLVDFMREMGPDTNVIAVCQPAPLALAATAYLAEEDPKAQPRTLTLIGGPIDPDAAATDVTDFGRRVTMGHLEKFVVQRVGFKYAGAGRMVYPGIQQLASFMAMNAETHAKAFSDQVVAVSKGEASDHDKHNVFYDEYLAVMDMTAEFYLSTVERIFKNREIAKNTFVVDGKPVDIGKITSVAVKTVEGGKDDISAPGQCVAALDMLTGLPEEKKANYIEPDAGHYGIFAGKSWRNNIRPLVLEFIDANSGIKTPAKRAKPKLVEDPPVENVAV | not soluble
18 | MGSDKIHHHHHHMRQVLQKDKRDVQLSKALSYLLRHTAVKEKLTIDSNGYTPLKELLSHNRLKTHKCTVDDIHRIVKENDKQRFHIKTLGADEEWICATQGHSIKSIQPSDEVLVPITEASQLPQELIHGTNLQSVIKIIESGAISPMSRNHVHLSPGMLHAKGVISGMRSSSNVYIFIDCHSPLFFQTLKMFRSLNNVYLSSSIPVELIQKVVVKGNLKDEEKLDTLRRILHERNIPLEKI | not soluble
19 | MGSDKIHHHHHHMRRGELNERRDAIIRLLCAQDELSAQDLAARLNVSVQTIRTDLRELDEAALVQRRHGRVRLRQPSENIGYAPRMSVARSEKQQIAMAVKPMIEDGSRVALGTGTTVEACARQLAASHRDLFVATNNIHAVIALQGASGVSVSLAGGAVRLRDLDFVGAASRAFFADYMVDIAIFSCGGLSLSGDVLDYNTDEIAAREAISTCATRRVLVVDREKFGRALPCRKHMIWDYDVVVTGADFPREIMRKCQEAGCEVLRVATDERPLRA | not soluble
